In US10766960 (dated 2020):
Numbering of substitutions follows the chain as printed.

T1: FcgRIIa H (human, UniProt P12318)
T1 chain: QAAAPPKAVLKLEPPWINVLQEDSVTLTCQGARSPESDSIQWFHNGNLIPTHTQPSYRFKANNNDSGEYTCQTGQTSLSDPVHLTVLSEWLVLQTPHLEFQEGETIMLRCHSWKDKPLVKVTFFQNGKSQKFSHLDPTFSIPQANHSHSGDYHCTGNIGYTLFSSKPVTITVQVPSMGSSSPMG

T2: FcgRIIb (human, UniProt P31994)
T2 chain: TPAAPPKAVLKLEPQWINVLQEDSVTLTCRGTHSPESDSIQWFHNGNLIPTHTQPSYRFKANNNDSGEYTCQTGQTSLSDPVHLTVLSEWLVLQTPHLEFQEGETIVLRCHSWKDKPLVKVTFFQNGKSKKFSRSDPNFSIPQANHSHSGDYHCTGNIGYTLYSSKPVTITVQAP

T3: FcgRIIa R (human, UniProt P12318)
T3 chain: T1 chain with H134R

T4: FcgRIa (human, UniProt P12314)
T4 chain: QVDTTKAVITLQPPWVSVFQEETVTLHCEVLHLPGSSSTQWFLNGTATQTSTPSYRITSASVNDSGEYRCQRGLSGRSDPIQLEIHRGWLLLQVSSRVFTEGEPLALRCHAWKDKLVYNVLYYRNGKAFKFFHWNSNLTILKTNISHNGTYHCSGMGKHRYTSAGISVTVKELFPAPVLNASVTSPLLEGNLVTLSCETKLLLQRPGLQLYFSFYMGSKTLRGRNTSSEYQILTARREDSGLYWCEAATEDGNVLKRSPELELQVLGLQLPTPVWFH

B1: H240-Kn203/H240-Hl068/L73-k0 (antibody)
chain 1: QDQLVQSGAEVKKPGASVKVSCKASGFNIKDTYIQWVRQAPGQGLEWMGRIDPLRKQTKYREKFEGRVTITADTSTNTAYMELSSLRSEDTAVYYCVRSGREFDYWGQGTLVTVSSASTKGPSVFPLAPSSKSTSGGTAALGCLVKDYFPEPVTVSWNSGALTSGVHTFPAVLQSSGLYSLSSVVTVPSSSLGTQTYICNVNHKPSNTKVDKKVEPKSCDKTHTCPPCPAPEFYWGPMVFLFPPKPKDTLMISRTPEVTCVVVDVSDEDPEVKFNWYVDGVEVHNAKTKPREEQYNATYRVVSVLTVLHQDWLNGKEYKCKVSNKDLPAPIEKTISKAKGQPREPQVCTLPPSRDELTKNQVSLWCLVKGFYPSDIAVEWESNGQPENNYKTTPPVLDSDGSFFLYSKLTVDKSRWQQGNVFSCSVMHEALHNHYTQKSLSLSP
chain 2: QDQLVQSGAEVKKPGASVKVSCKASGFNIKDTYIQWVRQAPGQGLEWMGRIDPLRKQTKYREKFEGRVTITADTSTNTAYMELSSLRSEDTAVYYCVRSGREFDYWGQGTLVTVSSASTKGPSVFPLAPSSKSTSGGTAALGCLVKDYFPEPVTVSWNSGALTSGVHTFPAVLQSSGLYSLSSVVTVPSSSLGTQTYICNVNHKPSNTKVDKKVEPKSCDKTHTCPPCPAPELLGGPSVFLFPPKPKDTLMISRTPEVTCVVVDVSHEEPEVKFNWYVDGVEVHNAKTKPREEQYNSTYRVVSVLTVLHQDWLNGKEYKCKVSNDALPKPIEETISKAKGQPREPQVYTLPPSRCELTKNQVSLSCAVKGFYPSDIAVEWESNGQPENNYKTTPPVLDSDGSFFLVSKLTVDKSRWQQGNVFSCSVMHEALHNHYTQKSLSLSP
chain 3: DIQMTQSPSSLSASVGDRVTITCRASQDIHKYIAWYQQKPGQAPRLLIQYTSTLQPGVPSRFSGSGSGTDYTFTISSLQPEDIATYYCLQYEQLRTFGGGTKVEIKRTVAAPSVFIFPPSDEQLKSGTASVVCLLNNFYPREAKVQWKVDNALQSGNSQESVTEQDSKDSTYSLSSTLTLSKADYEKHKVYACEVTHQGLSSPVTKSFNRGEC
B2: H240-Kn202/H240-Hl076/L73-k0 (antibody)
chain 1: B1 chain 1 with F233E, Y234Q, D269E, D326A
chain 2: B1 chain 2 with K329M
chain 3: B1 chain 3
B3: H240-Kn199/H240-Hl068/L73-k0 (antibody)
chain 1: B1 chain 1 with F233L
chain 2: B1 chain 2
chain 3: B1 chain 3
B4: H240-Kn200/H240-Hl076/L73-k0 (antibody)
chain 1: B1 chain 1 with F233S, Y234Q, D269E, D326A
chain 2: B1 chain 2 with K329M
chain 3: B1 chain 3
B5: H240-Kn223/H240-Hl068/L73-k0 (antibody)
chain 1: B1 chain 1 with F233G
chain 2: B1 chain 2
chain 3: B1 chain 3
B6: H240-Kn201/H240-Hl076/L73-k0 (antibody)
chain 1: B1 chain 1 with Y234Q, D269E, D326A
chain 2: B1 chain 2 with K329M
chain 3: B1 chain 3
B7: H240-Kn219/H240-Hl068/L73-k0 (antibody)
chain 1: B1 chain 1 with F233I
chain 2: B1 chain 2
chain 3: B1 chain 3
B8: H240-Kn217/H240-Hl068/L73-k0 (antibody)
chain 1: B1 chain 1 with F233D
chain 2: B1 chain 2
chain 3: B1 chain 3
B9: H240-Kn216/H240-Hl068/L73-k0 (antibody)
chain 1: B1 chain 1 with F233V
chain 2: B1 chain 2
chain 3: B1 chain 3
B10: H240-Kn220/H240-Hl068/L73-k0 (antibody)
chain 1: B1 chain 1 with F233M
chain 2: B1 chain 2
chain 3: B1 chain 3
B11: H240-Kn211/H240-Hl076/L73-k0 (antibody)
chain 1: B1 chain 1 with F233M, Y234Q, D269E, D326A
chain 2: B1 chain 2 with K329M
chain 3: B1 chain 3
B12: H240-Kn208/H240-Hl076/L73-k0 (antibody)
chain 1: B1 chain 1 with F233D, Y234Q, D269E, D326A
chain 2: B1 chain 2 with K329M
chain 3: B1 chain 3
B13: H240-Kn215/H240-Hl076/L73-k0 (antibody)
chain 1: B1 chain 1 with F233H, Y234Q, D269E, D326A
chain 2: B1 chain 2 with K329M
chain 3: B1 chain 3
B14: H240-Kn221/H240-Hl068/L73-k0 (antibody)
chain 1: B1 chain 1 with F233T
chain 2: B1 chain 2
chain 3: B1 chain 3
B15: H240-Kn224/H240-Hl068/L73-k0 (antibody)
chain 1: B1 chain 1 with F233H
chain 2: B1 chain 2
chain 3: B1 chain 3
B16: H240-Kn207/H240-Hl076/L73-k0 (antibody)
chain 1: B1 chain 1 with F233V, Y234Q, D269E, D326A
chain 2: B1 chain 2 with K329M
chain 3: B1 chain 3
B17: H240-Kn204/H240-Hl211/L73-k0 (antibody)
chain 1: B1 chain 1 with F233Y, Y234L, W235G, M238S, D267H, K289Y, Y295W, A297S, D326A
chain 2: B1 chain 2 with S238D, E269D, D325K, K329M, E333V
chain 3: B1 chain 3
B18: H240-Kn189/H240-Hl068/L73-k0 (antibody)
chain 1: B1 chain 1 with F233S
chain 2: B1 chain 2
chain 3: B1 chain 3
B19: H240-Kn218/H240-Hl068/L73-k0 (antibody)
chain 1: B1 chain 1 with F233Q
chain 2: B1 chain 2
chain 3: B1 chain 3

Target: T1, FcgRIIa H
Assay: SPR

| Binder | Kd [nM] |
| --- | --- |
| B1 | 49 |
| B2 | 360 |
| B3 | 27 |
| B4 | 230 |
| B5 | 94 |
| B6 | 140 |
| B7 | 20 |
| B8 | 76 |
| B9 | 32 |
| B10 | 34 |
| B11 | 200 |
| B12 | 310 |
| B13 | 250 |
| B14 | 44 |
| B15 | 57 |
| B16 | 170 |
| B17 | 760 |
| B18 | 48 |
| B19 | 33 |

Target: T2, FcgRIIb
Assay: SPR

| Binder | Kd [nM] |
| --- | --- |
| B1 | 270 |
| B2 | 4100 |
| B3 | 130 |
| B4 | 6200 |
| B5 | 280 |
| B6 | 5400 |
| B7 | 90 |
| B8 | 120 |
| B9 | 160 |
| B10 | 160 |
| B11 | 4200 |
| B12 | 3200 |
| B13 | 6100 |
| B14 | 220 |
| B15 | 360 |
| B16 | 5200 |
| B17 | 1300 |
| B18 | 150 |
| B19 | 220 |

These binders were tested against FcgRIIIa V (human, UniProt P08637) (assay: SPR).
Sequence of FcgRIIIa V (P08637 17-208 F176V): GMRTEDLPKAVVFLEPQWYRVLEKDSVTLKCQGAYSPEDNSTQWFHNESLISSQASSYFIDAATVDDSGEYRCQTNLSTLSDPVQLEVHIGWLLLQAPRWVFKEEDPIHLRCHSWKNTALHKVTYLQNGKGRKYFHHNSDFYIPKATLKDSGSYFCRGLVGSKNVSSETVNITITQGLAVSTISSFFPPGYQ

| Binder | Kd [nM] |
| --- | --- |
| B1 | 0.76 |
| B2 | 0.38 |
| B3 | 0.41 |
| B4 | 0.59 |
| B5 | 0.57 |
| B6 | 0.36 |
| B7 | 0.49 |
| B8 | 0.38 |
| B9 | 0.46 |
| B10 | 0.5 |
| B11 | 0.52 |
| B12 | 0.4 |
| B13 | 0.68 |
| B14 | 0.47 |
| B15 | 0.53 |
| B16 | 0.49 |
| B17 | 7.4 |
| B18 | 0.52 |
| B19 | 0.5 |

Target: T3, FcgRIIa R
Assay: SPR

| Binder | Kd [nM] |
| --- | --- |
| B1 | 46 |
| B2 | 640 |
| B3 | 20 |
| B4 | 790 |
| B5 | 62 |
| B6 | 720 |
| B7 | 14 |
| B8 | 28 |
| B9 | 23 |
| B10 | 25 |
| B11 | 550 |
| B12 | 500 |
| B13 | 1000 |
| B14 | 29 |
| B15 | 54 |
| B16 | 680 |
| B17 | 640 |
| B18 | 23 |
| B19 | 37 |

Target: T4, FcgRIa
Assay: SPR

| Binder | Kd [nM] |
| --- | --- |
| B1 | 0.43 |
| B2 | 0.071 |
| B3 | 0.31 |
| B4 | 0.088 |
| B5 | 0.13 |
| B6 | 0.058 |
| B7 | 0.15 |
| B8 | 0.17 |
| B9 | 0.17 |
| B10 | 0.15 |
| B11 | 0.084 |
| B12 | 0.1 |
| B13 | 0.089 |
| B14 | 0.18 |
| B15 | 0.14 |
| B16 | 0.085 |
| B17 | 0.038 |
| B18 | 0.16 |
| B19 | 0.14 |

These binders were tested against FcgRIIIa F (human, UniProt P08637) (assay: SPR).
Sequence of FcgRIIIa F (P08637 17-208): as the sequence (P08637 17-208 F176V) above, with V160F counted along it

| Binder | Kd [nM] |
| --- | --- |
| B1 | 3.4 |
| B2 | 1.6 |
| B3 | 2.3 |
| B4 | 2.4 |
| B5 | 4.2 |
| B6 | 1.8 |
| B7 | 2.7 |
| B8 | 2.4 |
| B9 | 3.4 |
| B10 | 3.5 |
| B11 | 1.9 |
| B12 | 1.8 |
| B13 | 2.6 |
| B14 | 2.7 |
| B15 | 4 |
| B16 | 1.9 |
| B17 | 14 |
| B18 | 3.2 |
| B19 | 3.5 |
